Here are results for one molecule from US20030118546A1 (Human Genome Sciences, published 2003).

The assay addresses T1, TNFα (tumor necrosis factor alpha), soluble (UniProt P01375 77-233).
T1 construct: also called TNFa; TNF-alpha
As to the kind of experiment: co-precipitation with protein G-Sepharose, immunoblot with anti-Flag or anti-myc-HRP. An excerpt: The respective Fc-fusions were precipitated with protein G-Sepharose and co-precipitated soluble ligands were detected by immunoblotting with anti-Flag (Babco) or anti-myc-HRP (BMB).
For orientation: In western blotting, separated proteins are transferred to a membrane and probed.

T1 sequence (P01375 77-233 limits assumed): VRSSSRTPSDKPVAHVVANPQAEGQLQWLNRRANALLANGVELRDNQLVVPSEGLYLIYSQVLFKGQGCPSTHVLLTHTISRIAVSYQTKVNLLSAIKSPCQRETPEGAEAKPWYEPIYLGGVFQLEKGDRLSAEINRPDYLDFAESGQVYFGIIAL

B1: TRID-Fc (soluble extracellular ligand binding domain of TRID fused to the Fc portion of human immunoglobulin (IgG)) (Fc fusion)
chain: TTARQEEVPQQTVAPQQQRHSFKGEECPAGSHRSEHTGACNPCTEGVDYTNASNNEPSCFPCTVCKSDQKHKSSCTMTRDTVCQCKEGTFRNENSPEMCRKCSRCPSGEVQVSNCTSWDDIQCVEEFGANATVETPAAEETMNTSPGTPAPAAEETMNTSPGTPAPAAEETMTTSPGTPAPAAEETMTTSPGTPAPAAEETMTTSPGTPASSHY
notes: The extracellular domain is only predicted ('about 27 to about 240'); preparation is said to follow Pan et al., Science 276:111 (1997); also called Fc-extracellular domain of TRID; TNFR-5; not shown: Fc portion of human immunoglobulin (IgG)
In the case of B1, the binding result is “no binding”.
